Reference: patent US20040259770A1, “Method for determining leukocyte activation” (Rush University Medical Center, priority 2003, published 2004)

Key:
Type in all cases: cell-based, human
[1] = system: eosinophils; test: Eosinophil superoxide production (cytochrome c reduction) in protein-coated tissue culture wells
Procedure: Neutrophils were isolated from venous blood of healthy adult volunteers by density gradient centrifugation through lymphocyte separation medium (BioWhittaker; Walkersville, Md.) as described previously (Haskell M. D., et al., Blood 86:4627-4637 (1995)) with one modification. Isotonicity was restored following the brief hypotonic lysis steps by the addition of 2× concentrated Hank's Balanced Salt Solution (HBSS) (Gibco; Grand Island, N.Y.) (without Ca^2+ and Mg^2+) containing 5 mM HEPES, pH 7.4. The cells were suspended in HEPES (10 mM)-buffered HBSS (with Ca^2+ and Mg^2+), pH 7.4, containing 1 milligram per milliliter of human serum albumin (HSA) (Sigma Chemical Co.) (HEPES-HBSS-HSA buffer). Neutrophil purity was routinely greater than 95 percent, with eosinophils representing the remainder of the cells. Eosinophils were isolated from the neutrophil preparations by negative selection (Hansel T. T., et al., J. Immunol. Meth. 145:105-10 (1991)) using anti-CD16 immunomagnetic beads as described by the manufacturer (Miltenyi Biotec, Inc., Auburn, Calif.). The eosinophils were suspended in HEPES-HBSS-HSA buffer. Eosinophil purity was routinely greater than 95 percent as determined by counting Wright-stained cytospin preparations. In some assays, an aliquot of the neutrophil preparation was held on ice for later use.
Superoxide production was measured essentially as described elsewhere (Motegi, Y., and H. Kita, J. Immunol. 161:4340 (1998)). Briefly, wells in a 96-well (flat bottom) tissue culture plate (Corning, Inc.; Corning, N.Y.) were coated with human milk lactoferrin (Sigma Chemical Co.) or human secretory IgA (ICN Biomedical; Aurora, Ohio) by incubation with 50 microliters of the indicated concentrations of the proteins in phosphate buffered saline (PBS) overnight at 4° C. Non-specific protein binding sites were blocked by subsequent incubation with 100 microliters of 25 milligrams per milliliter of HSA in PBS for 2 hours at 37° C., and the tissue culture wells were washed twice with PBS before use. Aliquots (5×10^4 cells) of eosinophils or neutrophils were added to the wells and were incubated in HEPES-HBSS—HSA buffer containing 50 micromolar cytochrome c (Sigma Chemical Co.) for 120 minutes at 37° C. in a Ceres UV900HDi microplate reader (Bio-Tek Instruments, Inc., Winooski, Vt.). Total incubation volume was 0.2 milliliters. Absorbance at 550 nanometers was recorded at 15-minute intervals, and superoxide production was calculated as described previously (Motegi, Y., and H. Kita, J. Immunol. 161:4340 (1998)). Results are expressed as nanomoles superoxide per 10^5 cells after subtraction of spontaneous production, which was measured in tissue culture wells coated only with HSA. GM-CSF (R & D Systems; Minneapolis, Minn.), porcine heparin (Sigma Chemical Co.), or chondroitin sulfate C (Sigma Chemical Co.) was added to the incubation mixtures in some assays as indicated.

[2] = system: neutrophils; test: Neutrophil superoxide production (cytochrome c reduction) in protein-coated tissue culture wells
Procedure: Neutrophils were isolated from venous blood of healthy adult volunteers by density gradient centrifugation through lymphocyte separation medium (BioWhittaker; Walkersville, Md.) as described previously (Haskell M. D., et al., Blood 86:4627-4637 (1995)) with one modification. Isotonicity was restored following the brief hypotonic lysis steps by the addition of 2× concentrated Hank's Balanced Salt Solution (HBSS) (Gibco; Grand Island, N.Y.) (without Ca^2+ and Mg^2+) containing 5 mM HEPES, pH 7.4. The cells were suspended in HEPES (10 mM)-buffered HBSS (with Ca^2+ and Mg^2+), pH 7.4, containing 1 milligram per milliliter of human serum albumin (HSA) (Sigma Chemical Co.) (HEPES-HBSS-HSA buffer). […] Eosinophil purity was routinely greater than 95 percent as determined by counting Wright-stained cytospin preparations. […]
Superoxide production was measured essentially as described elsewhere (Motegi, Y., and H. Kita, J. Immunol. 161:4340 (1998)). […] Aliquots (5×10^4 cells) of eosinophils or neutrophils were added to the wells and were incubated in HEPES-HBSS—HSA buffer containing 50 micromolar cytochrome c (Sigma Chemical Co.) for 120 minutes at 37° C. in a Ceres UV900HDi microplate reader (Bio-Tek Instruments, Inc., Winooski, Vt.). […] Results are expressed as nanomoles superoxide per 10^5 cells after subtraction of spontaneous production, which was measured in tissue culture wells coated only with HSA. […]

[3] = system: eosinophils; test: Eosinophil degranulation: EDN release by ELISA; details: 3 to 100 micrograms per milliliter immobilized, 4 hours at 37° C, maximum at 100 micrograms per milliliter
Procedure: Eosinophils (2×10^5) were incubated in the presence and absence of 100 picograms per milliliter of GM-CSF in RPMI 1640 containing 1 milligram per milliliter of HSA for 4 hours at 37° C. in 5 percent CO2 in tissue culture wells precoated with lactoferrin or secretory IgA as above. Total incubation volume was 0.2 milliliters. Reactions were stopped by centrifugation at 300 g for 5 minutes at 4° C., and supernatants were stored at −20° C. until measurement of eosinophil-derived neurotoxin (EDN) content by specific ELISA (MBL International, Watertown, Mass.). Spontaneous release of EDN was determined with cells incubated in HSA-coated wells.

[4] = system: eosinophils; test: Eosinophil leukotriene C4 production by ELISA; details: 1 hour
Procedure: Eosinophils (2×10^5) were incubated in the presence and absence of 100 pg/ml GM-CSF in RPMI 1640 containing 10 mM HEPES for 1 hr at 37° C. in tissue culture wells precoated with lactoferrin or secretory IgA as above with one modification. The tissue culture wells were not treated with HSA and HSA was not added to the incubation buffer to minimize loss of leukotriene C4. Total incubation volume was 0.2 ml. Reactions were stopped by centrifugation at 300 g for 5 min at 4° C., and supernatants were stored at −20° C. until measurement of leukotriene C4 content by a leukotriene C4/D4/E4 ELISA (Amersham Pharmacia Biotech; Piscataway, N.J.). Spontaneous leukotriene C4 production was determined with eosinophils incubated in untreated tissue culture wells.

B1: immobilized lactoferrin: human milk lactoferrin (Sigma) coated on tissue culture wells overnight at 4° C (protein, UniProt P02788 20-710, looked up)
Lactotransferrin: GRRRSVQWCAVSQPEATKCFQWQRNMRKVRGPPVSCIKRDSPIQCIQAIAENRADAVTLDGGFIYEAGLAPYKLRPVAAEVYGTERQPRTHYYAVAVVKKGGSFQLNELQGLKSCHTGLRRTAGWNVPIGTLRPFLNWTGPPEPIEAAVARFFSASCVPGADKGQFPNLCRLCAGTGENKCAFSSQEPYFSYSGAFKCLRDGAGDVAFIRESTVFEDLSDEAERDEYELLCPDNTRKPVDKFKDCHLARVPSHAVVARSVNGKEDAIWNLLRQAQEKFGKDKSPKFQLFGSPSGQKDLLFKDSAIGFSRVPPRIDSGLYLGSGYFTAIQNLRKSEEEVAARRARVVWCAVGEQELRKCNQWSGLSEGSVTCSSASTTEDCIALVLKGEADAMSLDGGYVYTAGKCGLVPVLAENYKSQQSSDPDPNCVDRPVEGYLAVAVVRRSDTSLTWNSVKGKKSCHTAVDRTAGWNIPMGLLFNQTGSCKFDEYFSQSCAPGSDPRSNLCALCIGDEQGENKCVPNSNERYYGYTGAFRCLAENAGDVAFVKDVTVLQNTDGNNNEAWAKDLKLADFALLCLDGKRKPVTEARSCHLAMAPNHAVVSRMDKVERLKQVLLHQQAKFGRNGSDCPDKFCLFQSETKNLLFNDNTECLARLHGKTTYEKYLGPQYVAGITNLKKCSTSPLLEACEFLRK
modifications: immobilized
notes: human milk lactoferrin (Sigma) coated on tissue culture wells overnight at 4° C
B1 was tested, and the “stimulation of eosinophil superoxide production (in words)” value ([1]; 1 to 100 micrograms per milliliter of the protein, 2 hours at 37° C) was “stimulated marked superoxide production”, the “concentration giving maximum (peak) superoxide production” value ([1]; 2-hour time point, absence of GM-CSF) was 30 micrograms per milliliter and the “superoxide production with immobilized lactoferrin and immobilized secretory IgA in combination” value ([1]; 3 or 10 micrograms per milliliter lactoferrin plus 1 or 3 micrograms per milliliter secretory IgA, n=4) was “additive levels of superoxide production”. For the same molecule, the “maximum response of superoxide production” value ([1]; 30 micrograms per milliliter immobilized, 2-hour time point, five assays, corrected for spontaneous production) was “approximately 5 nanomoles superoxide per 10^5 eosinophils”, the eosinophil superoxide production ([1]; 30 micrograms per milliliter immobilized, Example 3 assays (same donors as neutrophils), spontaneous value subtracted) was 5.5±1.4 nanomoles per 10^5 eosinophils and the “stimulation of eosinophil superoxide production (in words)” value ([1]; immobilized at concentrations less than 3 micrograms per milliliter) was “did not appear to stimulate superoxide production”. The “potency relative to immobilized secretory IgA” value ([1]; superoxide production, same assays) was “approximately one-third”, the “stimulation of neutrophil superoxide production (in words)” value ([2]; 1 to 100 micrograms per milliliter immobilized, up to 2 hours) was “did not produce significant superoxide production” and the “neutrophil superoxide production as percent of eosinophil superoxide production stimulated by 30 micrograms per milliliter immobilized lactoferrin” value ([2]; 100 microgram per milliliter immobilized lactoferrin) was 25%. For the same molecule, the “net release of EDN” value [3] was ≤ 1000 nanograms of EDN per 10^6 eosinophils, the “leukotriene C4 production (in words)” value ([4]; 3 to 100 micrograms per milliliter immobilized, no GM-CSF) was “stimulated only low levels of leukotriene C4” and the “leukotriene C4 production” value ([4]; 10 micrograms per milliliter immobilized lactoferrin alone) was 115 picograms leukotriene C4 per 10^6 eosinophils. The “leukotriene C4 production” value ([4]; 10 micrograms per milliliter immobilized lactoferrin together with 100 picograms per milliliter GM-CSF) was 955 picograms leukotriene C4 per 10^6 eosinophils.
